Measurements taken from article PMC12636523.

B1: Wnt4-3XFLAG (ligand)
chain: QVRNEDQLLMVGQNGDLDSSNPAIHHQQHQQHQQHQQHQQHQSNHNLNNGNMNSTILNTLMGNNAGQVVNSSPGGGGSMINQLGSSTSSVPSVIGGGVGSVGNPWHSAVGLGVPGNGMGLPSSHGLGGNMGSHPHGHALAGLAKLGIIVPGGQGLPGNLGYGGTMLNGGGVGGAAGMGLGIGSNTNNMDMQQGLYNEHFISEHTVMAVFTSQGQVGGPCRYMPATRRQNHQCRKETGLPGTLSEARRLATTHCEEQFRYDRWNCSIETRGKRNIFKKLYKETAFVHALTAAAMTHSIARACAEGRMTKCSCGPKKHNREAQDFQWGGCNDNLKHGKRVTRSFLDLRGGDGDEVSEILRHDSEVGIEAVSSQMMDKCKCHGVSGSCSMKTCWKKMADFNATATLLRQKYNEAIRKAPNQRSMRQVSSSRMKKPKQRRKKPQQSQYTTLYYLETSPSYCAVTKDRQCLHPDNCGTLCCGRGYTTQVVKQVEKCRCRFNNGRCCQLICDYCQRLENKYFCK
B2: Wnt2-3XHA (ligand)
chain: FTSVMLCGRIPGLTPGQRNMCREMPDALIALGEGHQLGAQECQHQFRGHRWNCSEVWQRNVFAHVIPTASREAAYTYAIASAGAAYAVTAACARGNISTCGCDVRHKATPTGGGTPDEPWKWGGCSADVDFGMRYARRFMDARELERDSRTLMNLHNNRAGRTLVKKMLRTDCKCHGVSGSCVMKTCWKSLPPFRLVGDRLMLKYQKAKTVQAVKGKRGLRLVLSRKKHAGTARAQKPVLDWPKRMELIYLEASPNYCERSLQTGSQGTSGRTCQRTGHGPQSCDLLCCGRGHNTQHIRRTTQCRCQFRWCCEVKCDECDESYEEFTCK
B3: Wg-HA (Wingless with 3XHA tag) (ligand)
chain: GSSLSQVEGKQKSGRGRGSMWWGIAKVGEPNNITPIMYMDPAIHSTLRRKQRRLVRDNPGVLGALVKGANLAISECQHQFRNRRWNCSTRNFSRGKNLFGKIVDRGCRETSFIYAITSAAVTHSIARACSEGTIESCTCDYSHQSRSPQANHQAGSVAGVRDWEWGGCSDNIGFGFKFSREFVDTGERGRNLREKMNLHNNEAGRAHVQAEMRQECKCHGMSGSCTVKTCWMRLANFRVIGDNLKARFDGATRVQVTNSLRATNALAPVSPNAAGSNSVGSNGLIIPQSGLVYGEEEERMLNDHMPDILLENSHPISKIHHPNMPSPNSLPQAGQRGGRNGRRQGRKHNRYHFQLNPHNPEHKPPGSKDLVYLEPSPSFCEKNLRQGILGTHGRQCNETSLGVDGCGLMCCGRGYRRDEVVVVERCACTFHWCCEVKCKLCRTKKVIYTCL

Molecular target: cleaved SVS-Dlp (SVS-Dlp coexpressed with Mmp2-FLAG, cleaved in the N-terminal polypeptide) (Drosophila)
Assay: co-IP; S2R+ cells cotransfected with SVS-dlp and a Wnt, with or without Mmp2-FLAG; clarified lysate (2 mM Tris HCl, 150 mM NaCl, 1% NP-40 substitute, 1 mM EDTA, 5% glycerol, pH 7.4) on GFP-Trap Magnetic Agarose beads, 30 min at 4°C; Western blot under reducing conditions

| Molecule | fold increase of Wnt pulled down against uncleaved Dlp (median) | fold increase of Wg pulled down, normalized to the amount of Dlp, against uncleaved Dlp (median) |
| --- | --- | --- |
| Wnt6-3XHA (ligand) | 2.7 fold | – |
| B1 | 5.9 fold | – |
| B2 | 6.2 fold | – |
| B3 | – | 2.7 fold |
